From paper PMC6098011 (2018)
Primed or numbered codes have the meaning given here. No end group written: not given here. FITC′ = fluorescein isothiocyanate label

T1: FEEED (Homo sapiens, not fully specified)
T1 chain: H-FEEED

B1: MBP-fused PB1-ZZ of p62 (residues 1-181) wild type (domain or fragment)
chain: not shown

Assays:
[1] = molecular target: B1; assay: FP; pH 8.0
[2] = molecular target: Flag-ZZ (ZZ-domain of p62 with the flag-tag) (human); assay: FP; pH 6.0
FEEED = molecular target: T1, FEEED; assay: FP; pH 8.0

Flag-ZZ (ZZ-domain of p62 with the flag-tag) (human), sequence (chain, as listed by the source): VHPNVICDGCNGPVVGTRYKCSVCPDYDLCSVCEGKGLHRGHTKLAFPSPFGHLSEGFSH

Binder | Kd [1] | other results
KEEEDK (also: FITC-labeled, site not given here) [FITC-labeled N-degron peptide with lysine at the primary position] | 113 µM | 
REEEDK-{FITC′} [R-BiP peptide (REEEDK–FITC)] |  | Kd [2]: > 400 µM
YEEEDK (also: FITC-labeled (site not given here)) [FITC-labeled N-degron peptide with tyrosine at the primary position] | 68 µM | 
WEEEDK (also: FITC-labeled (site not given here)) [FITC-labeled N-degron peptide with tryptophan at the primary position] | 82 µM | 
B1 |  | Kd (FEEED): 169 µM
